Source: article PMC10397247
Where two headings read alike, the source gives them in different places. Values belong to the binder of their own block, whether it stands above or below them.

Key:
P7A-bS = biological target: T1, P7A-bS; experiment: two-hybrid library CCNG1;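 further: natural log of median RNA to DNA barcode read ratio; higher means stronger binding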
T1 chain: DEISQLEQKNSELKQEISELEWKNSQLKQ

P8A-bS = biological target: T2, P8A-bS; experiment: two-hybrid library CCNG1;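 further: natural log of median RNA to DNA barcode read ratio; higher means stronger binding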
T2 chain: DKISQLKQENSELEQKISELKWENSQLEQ

P6bHq = biological target: T3, P6bHq; experiment: two-hybrid library CCNG1;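 further: natural log of median RNA to DNA barcode read ratio; higher means stronger binding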
T3 chain: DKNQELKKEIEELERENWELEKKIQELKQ

P6A-bS = biological target: T4, P6A-bS; experiment: two-hybrid library CCNG1;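 further: natural log of median RNA to DNA barcode read ratio; higher means stronger binding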
T4 chain: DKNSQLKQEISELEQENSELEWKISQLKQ

P9A-bS = biological target: T5, P9A-bS; experiment: two-hybrid library CCNG1
T5 chain: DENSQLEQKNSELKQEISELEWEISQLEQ

P5A-bS = biological target: T6, P5A-bS; experiment: two-hybrid library CCNG1
T6 chain: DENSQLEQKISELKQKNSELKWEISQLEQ

O14-bA = biological target: T7, O14-bA; experiment: two-hybrid library CCNG1
T7 chain: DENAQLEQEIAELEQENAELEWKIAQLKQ

4H883-bA = biological target: T8, 4H883-bA; experiment: two-hybrid library CCNG1
T8 chain: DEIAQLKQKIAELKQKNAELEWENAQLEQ

4H953-bA = biological target: T9, 4H953-bA; experiment: two-hybrid library CCNG1
T9 chain: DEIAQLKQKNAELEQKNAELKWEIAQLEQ

4H908-bA = biological target: T10, 4H908-bA; experiment: two-hybrid library CCNG1
T10 chain: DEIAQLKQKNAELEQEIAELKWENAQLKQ

4H918-bA = biological target: T11, 4H918-bA; experiment: two-hybrid library CCNG1
T11 chain: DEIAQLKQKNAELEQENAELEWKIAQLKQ

O5-bP = biological target: T12, O5-bP; experiment: two-hybrid library CCNG1
T12 chain: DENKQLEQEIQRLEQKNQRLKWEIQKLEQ

4H967-bA = biological target: T13, 4H967-bA; experiment: two-hybrid library CCNG1
T13 chain: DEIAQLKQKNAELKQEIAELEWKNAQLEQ

O3-AA = biological target: T14, O3-AA; experiment: two-hybrid library CCmax; settings: mean of both orientations
T14 chain: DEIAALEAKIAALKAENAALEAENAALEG

O5-AA = biological target: T15, O5-AA; experiment: two-hybrid library CCmax; settings: mean of both orientations
T15 chain: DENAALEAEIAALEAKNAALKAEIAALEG

O4-AA = biological target: T16, O4-AA; experiment: two-hybrid library CCmax; settings: mean of both orientations
T16 chain: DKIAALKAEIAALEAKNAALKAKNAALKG

P9-AA = biological target: T17, P9-AA; experiment: two-hybrid library CCmax; settings: mean of both orientations
T17 chain: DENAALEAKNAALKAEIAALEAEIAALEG

O6-AA = biological target: T18, O6-AA; experiment: two-hybrid library CCmax; settings: mean of both orientations
T18 chain: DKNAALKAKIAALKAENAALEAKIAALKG

O7-AA = biological target: T19, O7-AA; experiment: two-hybrid library CCmax; settings: mean of both orientations
T19 chain: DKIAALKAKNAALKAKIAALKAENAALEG

O8-AA = biological target: T20, O8-AA; experiment: two-hybrid library CCmax; settings: mean of both orientations
T20 chain: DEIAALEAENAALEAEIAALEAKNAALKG

P10-AA = biological target: T21, P10-AA; experiment: two-hybrid library CCmax; settings: mean of both orientations
T21 chain: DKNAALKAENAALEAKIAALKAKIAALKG

O2-AA = biological target: T22, O2-AA; experiment: two-hybrid library CCmax
T22 chain: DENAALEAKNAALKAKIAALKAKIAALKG

P8A-bP = biological target: T23, P8A-bP; experiment: two-hybrid library CCNG1
T23 chain: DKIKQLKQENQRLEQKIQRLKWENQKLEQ

P5A-bP = biological target: T24, P5A-bP; experiment: two-hybrid library CCNG1
T24 chain: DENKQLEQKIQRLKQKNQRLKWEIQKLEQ

P7A-bP = biological target: T25, P7A-bP; experiment: two-hybrid library CCNG1
T25 chain: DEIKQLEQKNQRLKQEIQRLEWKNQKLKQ

P6A-bP = biological target: T26, P6A-bP; experiment: two-hybrid library CCNG1
T26 chain: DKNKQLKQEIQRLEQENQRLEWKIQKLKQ

P9A-bP = biological target: T27, P9A-bP; experiment: two-hybrid library CCNG1
T27 chain: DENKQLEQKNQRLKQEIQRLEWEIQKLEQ

O14-AA = biological target: T28, O14-AA; experiment: two-hybrid library CCmax
T28 chain: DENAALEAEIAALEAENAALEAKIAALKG

Binder: DEIAQLKQKIAELKQKNAELEWENAQLEQ [4H883-bA]
interaction score (O14-bA): 0.814
interaction score (4H883-bA): -0.18
interaction score (4H953-bA): -1.68
interaction score (4H908-bA): -1.33
interaction score (4H918-bA): -1.15
interaction score (O5-bP): -1.74
interaction score (4H967-bA): -1.69

Binder: DENAALEAKNAALKAKIAALKAKIAALKG [O2-AA]
interaction score (O3-AA): -1.26
interaction score (O5-AA): -1.37
interaction score (O4-AA): -1.55
interaction score (P9-AA): 0.934
interaction score (O6-AA): -1.77
interaction score (O7-AA): -1.5
interaction score (O8-AA): 0.633
interaction score (P10-AA): 1.33
interaction score (O2-AA): -1.61

Next, values leading:

interaction score (P7A-bS): -1.3
interaction score (P8A-bS): -1.1
interaction score (P6bHq): 1.33
interaction score (P6A-bS): 0.815
interaction score (P9A-bS): -0.973
interaction score (P5A-bS): -0.799
Binder: DENSQLEQKISELKQKNSELKWEISQLEQ [P5A-bS]

interaction score (P8A-bP): -0.516
interaction score (P5A-bP): -1.57
interaction score (P7A-bP): -1.06
interaction score (P6A-bP): 1.7
interaction score (P9A-bP): -1.44
Binder: DENKQLEQKIQRLKQKNQRLKWEIQKLEQ [P5A-bP]

interaction score (O3-AA): -1.47
interaction score (O5-AA): 1.3
interaction score (O4-AA): -0.13
interaction score (P9-AA): -1.61
interaction score (O6-AA): 1.44
interaction score (O7-AA): 1.84
interaction score (O8-AA): -0.992
interaction score (P10-AA): -0.458
interaction score (O2-AA; mean of both orientations): 0.393
interaction score (O14-AA): -1.46
Binder: DENAALEAEIAALEAENAALEAKIAALKG [O14-AA]
